± gives the uncertainty stated by the source.
Assay: protein stability index of a GFP-peptide fusion (yeast GPS) (PSI 1-4); higher = more stable; sorted into four equal gates, so the index is relative within each strain
Outline: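 For each peptide, the protein stability index sums the read frequency in every gate after multiplying it by the gate number. Read frequencies came from plasmids that were PCR-amplified from each gate and Illumina-sequenced, with reads assigned to strains by barcodes. The gates were four equal bins of GFP/Cherry fluorescence ratio applied to mid-log yeast in leucine-free medium carrying a pooled library of tiled 17-residue yeast protein peptides fused downstream of GFP on a Cherry-expressing plasmid.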

| Sequence | protein stability index (doa10∆) | protein stability index (pdr5∆) | protein stability index (san1∆) | protein stability index (ubr1∆) |
| --- | --- | --- | --- | --- |
| ISIDSWPTTHKYPLGHF [DIS3] | 2.38 ± 0.077 | 2.74 ± 0.11 | 3.04 ± 0.082 | 2.81 ± 0.072 |
| ISIFSTPGSVSLSAYNL [PRP8] | 2.61 ± 0.24 | 2.46 ± 0.09 | – | 1.81 ± 0.22 |
| ISKQRTFAVILFLIIQC [YMR129W/POM152] | 1.38 ± 0.051 | 1.38 ± 0.067 | 1.32 ± 0.087 | 1.51 ± 0.058 |
| ISLYLLNLLSQNNTTKF [RPN12] | 1.53 ± 0.044 | 1.72 ± 0.054 | 1.32 ± 0.073 | 1.36 ± 0.039 |
| ISSGLLYLQDSNDKFVH [SRB8] | 1.94 ± 0.087 | 1.48 ± 0.13 | 1.25 ± 0.15 | 1.14 ± 0.07 |
| ISTRERDYLVDTLKLRE [RRP6] | 3.07 ± 0.076 | 2.72 ± 0.061 | 2.97 ± 0.065 | 3.17 ± 0.06 |
| ISVGLYDTTPLLDTNSL [SKI6] | 2.57 ± 0.074 | 2.88 ± 0.13 | 2.48 ± 0.099 | 2.51 ± 0.14 |
| ISVTRQVVLGGTSKYLI [SMC2] | 2.65 ± 0.074 | 2.96 ± 0.14 | 2.79 ± 0.068 | 2.73 ± 0.062 |
| ISYTSHIEGVVILKKNP [RPN1] | 2.57 ± 0.059 | 3.14 ± 0.078 | 2.87 ± 0.077 | 2.52 ± 0.046 |
| ITKDHKVLARQQLQVLA [FAS2] | 1.29 ± 0.044 | 1.45 ± 0.062 | 1.82 ± 0.099 | 1.3 ± 0.047 |
| ITKLHLDKDRKALIQRK [RPL26A] | 2.1 ± 0.13 | 1.92 ± 0.094 | 2.49 ± 0.16 | 1.51 ± 0.091 |
| ITKLLEINLSKIFQTTP [YCS4] | 2.58 ± 0.054 | 2.23 ± 0.044 | 2.43 ± 0.042 | 2.6 ± 0.033 |
| ITQIVEKDFCTSCLQNN [SRB8] | 2.35 ± 0.065 | 2.71 ± 0.077 | 2.68 ± 0.081 | 2.28 ± 0.049 |
| ITSLYALIRRDFTLIPR [CDC53] | 2.95 ± 0.08 | 1.28 ± 0.071 | 1.18 ± 0.15 | 1.41 ± 0.031 |
| ITVVLGVNGYIWLRKTS [RRP4] | 1.61 ± 0.2 | 1.62 ± 0.12 | 1.34 ± 0.26 | 1.95 ± 0.11 |
| ITYTPVRHGRAGATTSR [RPS15] | 2.28 ± 0.11 | 2.24 ± 0.081 | 2.58 ± 0.088 | 2.92 ± 0.099 |
| IVDKYIGESARIIREMF [RPT4] | 2.5 ± 0.14 | 2.6 ± 0.088 | 2.48 ± 0.11 | 2.44 ± 0.079 |
| IVGKSNVLVTMPVAPTM [YMR129W/POM152] | 2.66 ± 0.12 | 2.56 ± 0.08 | 2.07 ± 0.17 | 2.65 ± 0.055 |
| IVGPDLAVLALVIVKKG [RPS6A] | 1.26 ± 0.035 | 1.34 ± 0.048 | 1.19 ± 0.093 | 1.36 ± 0.043 |
| IVPIFQLISAVLVSMGS [YJL039C/NUP192] | – | 2.39 ± 0.28 | – | 1.22 ± 0.091 |
| IVPLTEGDIQVLKSYGA [RPT1] | 3.14 ± 0.09 | 3.14 ± 0.11 | 2.77 ± 0.062 | 2.99 ± 0.052 |
| IVPVISTIENVLFYIGR [COB] | 1.85 ± 0.059 | 1.68 ± 0.042 | 2.4 ± 0.058 | 2.34 ± 0.056 |
| IVQELLDKNLIKLVKQN [RPC34] | 1.97 ± 0.057 | 1.99 ± 0.058 | 2.62 ± 0.068 | 2.57 ± 0.052 |
| IVSFIVNCFHEDTELYQ [YJL039C/NUP192] | 1.62 ± 0.051 | 1.71 ± 0.051 | 2.22 ± 0.055 | 2.46 ± 0.036 |
| IYAGFGRDTTDYLKNII [RPN2] | – | 2.75 ± 0.21 | 3.22 ± 0.16 | – |
| IYEKLKNYLKNYILNFK [CDC53] | 2.44 ± 0.063 | 1.32 ± 0.055 | 1.17 ± 0.13 | 1.14 ± 0.061 |

| Sequence | protein stability index (doa10∆) | protein stability index (pdr5∆) | protein stability index (san1∆) | protein stability index (ubr1∆) |
| --- | --- | --- | --- | --- |
| IYEVDITVHAPLLPIVE [SNU114] | 2.32 ± 0.056 | 2.29 ± 0.056 | 2.19 ± 0.088 | 2.52 ± 0.043 |
| IYKRGQAGVTKASVTIV [SMC2] | 1.61 ± 0.093 | 1.73 ± 0.083 | 1.78 ± 0.13 | 1.16 ± 0.11 |
| IYLLFQSSGKLKEYLDL [YDL116W/NUP84] | 2.51 ± 0.051 | 2.44 ± 0.052 | 2.52 ± 0.048 | 2.6 ± 0.038 |
| IYSPLHSFIKMLQMKGK [SIR2] | 2.1 ± 0.064 | 1.79 ± 0.058 | 1.91 ± 0.14 | 1.88 ± 0.051 |
| KADDDSVTIISAGNDKM [ASC1] | 3.24 ± 0.091 | 2.92 ± 0.11 | 3.16 ± 0.04 | 3.04 ± 0.058 |
| KAEIPPEYAKVGDFLLQ [SIN4] | 1.52 ± 0.079 | 1.93 ± 0.06 | 1.7 ± 0.093 | 1.46 ± 0.061 |
| KAKAQAQAQAQAQAQVY [PGD1] | 2.96 ± 0.11 | 3.26 ± 0.088 | 3.04 ± 0.083 | 3 ± 0.066 |
| KAKFTSLAVRSLQDRSS [YCS4] | 2.15 ± 0.042 | 2.3 ± 0.05 | 2.13 ± 0.054 | 2.24 ± 0.036 |
| KALPMLEQVEFEKNTIL [MED4] | 3.02 ± 0.07 | 3.04 ± 0.083 | 2.65 ± 0.064 | 3.08 ± 0.083 |
| KANIFQVIKNEVCAKMP [SSN2] | 2.7 ± 0.14 | 2.27 ± 0.084 | 1.4 ± 0.21 | 1.84 ± 0.09 |
| KAPKIQRLVTPQRLQRK [RPS6A] | 2.77 ± 0.06 | 2.95 ± 0.049 | 2.91 ± 0.042 | 2.94 ± 0.039 |
| KARTNLHQHVVLKCLKS [RPC34] | 2.91 ± 0.19 | 2.64 ± 0.16 | 2.33 ± 0.14 | 2.23 ± 0.23 |
| KASLLLHVLVAHKLKKS [FAS2] | 1.38 ± 0.055 | 1.27 ± 0.043 | 1.12 ± 0.088 | 1.25 ± 0.038 |
| KATAAKKAVVKGTNGKK [RPL25] | 3.3 ± 0.15 | 2.05 ± 0.1 | 1.53 ± 0.17 | 1.29 ± 0.22 |
| KCFDDIEPHIFDQLIEW [YCG1] | 3.2 ± 0.075 | 3.1 ± 0.081 | 3.31 ± 0.046 | 3.3 ± 0.046 |
| KCIKYSEKLITKYFEPT [ECM29] | 2.63 ± 0.12 | 3.03 ± 0.13 | 2.84 ± 0.05 | 2.68 ± 0.074 |
| KCIPKKGTVFQFEIPIS [POP4] | 1.44 ± 0.16 | 1.68 ± 0.087 | 1.49 ± 0.29 | 1.17 ± 0.052 |
| KCSTRGLSTDHTTQIVN [YML103C/NUP188] | 2.9 ± 0.079 | 2.9 ± 0.085 | 2.79 ± 0.07 | 3.01 ± 0.054 |
| KDDRFVPVRKFKGNNGV [RPN2] | 2.02 ± 0.07 | 2.77 ± 0.09 | 2.94 ± 0.069 | 2.28 ± 0.053 |
| KDEPVQNDILQESFINT [FAS2] | 2.94 ± 0.089 | 3.14 ± 0.12 | 3.02 ± 0.052 | 3.21 ± 0.082 |
| KDERDTWIHSEIEELKS [SMC3] | 3.16 ± 0.18 | 3.02 ± 0.097 | 2.91 ± 0.25 | 3.19 ± 0.12 |
| KDKGVYVVTSDEHPKTL [SIR2] | 2.78 ± 0.076 | 3.24 ± 0.075 | 3.25 ± 0.055 | 2.98 ± 0.079 |
| KDNDKNLKFLKNKDSLV [SRB4] | 3.48 ± 0.094 | 3.21 ± 0.12 | 3.28 ± 0.072 | 3.34 ± 0.068 |
| KDNGMLIIDGQIIFGVV [RPO21] | 1.95 ± 0.12 | 1.79 ± 0.076 | 1.61 ± 0.21 | 2.73 ± 0.12 |
| KDNVEHLVMRAISLGLL [RPN9] | 2.43 ± 0.075 | 2.92 ± 0.074 | 2.48 ± 0.071 | 2.76 ± 0.059 |
| KDRISSCSSKEKTLVLE [SMC4] | 2.58 ± 0.097 | 2.6 ± 0.083 | 2.45 ± 0.12 | 2.88 ± 0.098 |
